Laboratory results from the DeepSol protein solubility set.

Assay: soluble on expression in E. coli; label from the status in PepcDB or PDB records

| Sequence | soluble on expression in E. coli |
| --- | --- |
| MGSDKIHHHHHHMNRLEIVNNISTNIERERIKLGMSQAQFAKALDMSLSTYKRIANGESSRIDVYTAYLIYKLTGRFSCELTGFNDDVINLVKRIKKLSKSQRILIDSIIDTELALSAYKDESCHTEDLISVLIPTGNMTDGMILDSYNVEKLDVSNYRKAFGDALHIGIRITSNHLHPVYNKGDILLISRNPIRDGDTGIFINAQNKRAYIRKLHQKNPCELTPINNYGETFYVDSDNVDDMSKWIKFGHVLCKVR | not soluble |
| MVNGSLGSRETETSAVKMGKDNKEHKESKESKTVDNYEARMPAVLPFAKPLASKKLNKKVLKTVKKASKAKNVKRGVKEVVKALRKGEKGLVVIAGDISPADVISHIPVLCEDHSVPYIFIPSKQDLGAAGATKRPTSVVFIVPGSNKKKDGKNKEEEYKESFNEVVKEVQAL | soluble |
| GPGGSPGGLQKRHARVTVKYDRRELQRRLDVEKWIDGRLEELYRGREADMPDEVNIDELLELESEEERSRKIQGLLKSCTNPTENFVQELLVKLRGLHK | soluble |
| MAHHHHHHMLSGITFEIFLFNFEIYHDFSSPLLFSLAIRIVIACGIPSMTNSSVQQVGCRVTYIWLSGKDSHHDIRSKDRTIYISPDDLEKDPKELLRLDMFPVWNFDGSSTGQAEGLITEIHIKPVNAYHCCIPRASSSVPWIVVLAECFLPTGEPTPDNSRAVARRIFDKGLGTHPWFGMEQEYFLVKDGHPYGWCPTCPPASQGPYYCATGSECIRGRKHVDLHYEVCLQMGLKICGTNAEVAFGQWEFQVGPCEGIEMGDQLVVARWVLLRILELEGLDADFRAKPILGDWNGSGLHTNFSTEATRAPGGLEVIYQYIERLKETSSKDIIFYGVDNNERLIGKHETSKLNETTFGIGTRGTSIRIPTAVAAAQSGYMEDRRPAAGADPYLVSSRLFASCLSVDAVELDFSSPRHEREWMASTSKV | not soluble |
| MSLKIGIIGASGKAGNEILKEAKKRGHEVTAIVRNASKVQEQDVAILEKDVFELTAEDIKPFDAVVNAFGAAPGQEHLHVEAGRALISILKDAKHTRLLVVGGAGSLFVDEAKTTRLMDTPEFPKEYLPTASNQGENLKDLQQTDSISWTFLSPAAFFDPAGKRTGSYQKGKDNVIVNAKGDSYISYADYAIAVLDELEHPEHKNERFTVVSEAEEGGSHHHHHH | soluble |
| MAHHHHHHMYYIYFENVKDEKEKKECEEFIYQIYMMENIKKDAILKLKNEKNENLYLLYLYYKYYYMNDKENVLNEIKQLNTSSCNANILKSRIFFDNDLLDECFDLLENGTIEIKAAKIFFLLNINRQDIVNEIIKDFLHMNEEIPIIKIVLAIYYLFNDNNKESFLIFDDLESLYGSMINDHSNIILNGKAVASILNYEFNDAKEFLKNQINNGDILYNLITCSLYLYELDEANEYLTKLYDNYSSHDSLKVLKKIDDEVDNFVSEF | not soluble |
| MKNTKLLLAIATSAALLTGCQNTHGIDTNMAISSGLNAYKAATLSDADAKAIANQGCAEMDSGNQVASKSSKYGKRLAKIAKALGNNINGTPVNYKVYMTSDVNAWAMANGCVRVYSGLMDMMNDNEIEGVLGHELGHVALGHSLAEMKASYAIVAARDAISATSGVASQLSRSQLGDIAEGAINAKYSRDKESEADDFSFDLLKKRGISTQGLVGSFEKLASLDGGRTQSMFDSHPPSTERAQHIRDRIASGKLEHHHHHH | soluble |
| MIVRFAGRRGVVSTCNLNGGYREDLRYAFNNSCGRDPDVIAKRSVGMRGKTMIEHYAALAEELGLPLDKTTGMGTAALIENTATSSRQYHGVTVMAVATAGIDVNGGRAGEPAAYNEFTQTDLIKPGTINVFLFIDASLDAGTLTRALVTATEAKSAALQELMANSMYSEDLATGSGTDSLIAICNKESEIVLQNSGKHVLLGEMIGQSVKEAITEALSRQTKMTPTRQASIEWQTKRYGITREAIVSECLRLYPHLKKEVVEAGIGGIDRDNRLVAAVAAIAHLCDQNRWQIISDKSMTCTAENILHTILSERGISEEANRKDIVCGQDAPAYRQVLSLCLHTLARILHNRIIHSSL | not soluble |
| IIHREYPRHHVLHRFTPASKPNGKKILITHGWMSRAAYMVRLIRLLHKEGYEVYAIDFPAHGEAKGIQLPWTDAIAIIKETINQFGPFYGLVGHSFGGSMILNTLNLAGQLPEWQLNHKPERAILIASPTQMRTPVNKIARRFKLSGQAYLQLRQLIRQQASVDPERIRLSHFISQAPDTYFLCIHGELDATINPKESINFCKYYKNARLSLLPDADHVSVLMDERVEQIALDFLNR | not soluble |
| MAIFHLDFKIVKRSEGKSSVAKAAYHARCKITDERTGDTYDYSRRDDLYGHFILAPANAPEHIVKDSTSLWNEVERVERQNNGQTARYFDVSIPTELNNDEKKKLVLEYCQKNFVDKGMIADIAFHDLDSDNPHAHVMLTLKTIGPEGFGKKERSWNDRKMSVLWRESWASMANSYLATAGSSERIDHRSLQAQHEEALEKAAVALDNEEKALWLAKAAETNRPPMKRIHSAKWRSKAAQEQRAAEQTVRDAAKLEAVEVYKTFSELDLEIVVDVRSFTISVLPKPEEIVIPDFSTREKHQSIVSPVTSRRPAVKSYRAPNKATKVGMRGEGTPVLVAPEPNKSTKLKTSSSKKTRAMNRAPMHSRKQVKPHQNGLFKRLTTYMVCLFKEKFIWSKKKPIPVDAEHDKRIADNYVFDEIQGIYVSRAEYERRARFNNGTYSPAPDEVRRFPHRTKEEQHKVDDEPDYDPSSTPVPIISRKHLSLKPLEHHHHHH | not soluble |
| SFVKDFKPQALGDTNLFKPIKIGNNELLHRAVIPPLTRMRALHPGNIPNRDWAVEYYTQRAQRPGTMIITEGAFISPQAGGYDNAPGVWSEEQMVEWTKIFNAIHEKKSFVWVQLWVLGWAAFPDNLARDGLRYDSASDNVFMDAEQEAKAKKANNPQHSLTKDEIKQYIKEYVQAAKNSIAAGADGVEINSANGYLLNQFLDPHSNTRTDEYGGSIENRARFTLEVVDALVEAIGHEKVGLRLSPYGVFNSMSGGAETGIVAQYAYVAGELEKRAKAGKRLAFVHLVEPRVTNPFLTEGEGEYEGGSNDFVYSIWKGPVIRAGNFALHPEVVREEVKDKRTLIGYGRFFISNPDLVDRLEKGLPLNKYDRDTFYQMSAHGYIDYPTYEEALKLGWDKS | soluble |
| TPGKSDEAKDVFQVQDIPPVTAIGQSGLRLNLIGKNDRILNVNSPVLYENFMVGQVESAHFDPSDQSVHYTIFIQSPNDKLIHSASRFWLESGINIETTGSGIKLNSAPLPALLSGAISFDSPKTKNSKNVKSEDSFTLYDSRSEVANLPDDRSLYYTAFFKQSVRGLTVGSPVEYKGLNVGVVSDVPYFDRNDSLHLFENGWIPVRIRIEPSRLEINADEQSKEHWKQQFQTALNKGLTATISSNNLLTGSKMIELNDQPSASPKLRPHTVYAGDTVIATQGGGLDDLQVKLADLLDKFDKLPLDKTVAELNGSLAELKSTLKSANAALSSIDKLVGKPQTQNIPNELNQTLKELRTTLQGVSPQSPIYGDVQNTLQSLDKTLKDVQPVINTLKEKPNALIFNSSSKDPIPKGSR | not soluble |
| MCMPLLPGEQQHLLIDRLEKRVPTAAGEGATTKL | not soluble |
| MSLATSYVGTVAGEKITTKEFKYFLGYVKIQMENDAQLQDQASKEAFWDSKIEGVDAKELAKQKALDSCKEFKIQLLKARERGLFLNDKDMQEIENSITTLLNQMAQFDQAAKNTGVEVMSAEEMLKDTYGVTIQEYKEILKDLRLVLKLVEDEQKNITITEEELRNRYNENKDVFDKITVRHIIFYTINPKTDVSLSEDAKKKAYENAKKALERANKGEDMEALALELSEDSGVEGNKGILEINSLKVNEPKLSNLVKWAYEHKVGDTDIVETGYGYHVVKIEKRTEYKDVVQNVKNVILSERYNQILGQWKQEPQYDLKKNEFALKRIKEGHHHHHH | soluble |
| MDFKQYSPEELKECSMIEVVHSVLGDKKQATTFNELVQEIAQVLGLSQEQVNAKIAQFYTDLNIDGRFINLGENRWGLRSWYPYEQIDEEILPQPKPKKKRKVEEDGFDDYIDEDEDDFDDVDGNEDEDDDVEDLDKVLEDEDGDDDDLDDLDEDEDDFAEEELEYDETEEEEEEEL | not soluble |
| DIGVWEYFPATDSLDWSDGVRRIHGVADEYEPSLDDALGFYHPDDRDKISKAVEQTIADREPYDIDLRIVRTDGDVRDVRAWGERVDDPQ | not soluble |
| MSLSKSTFEIKNGHFYRNGKITPVLSGEMHYARIPHQYWRHRLQMMKGMGLNTVATYVFWNLHEPEPGKWDFTGDKNLAEFIKTAGEEGMMVILRPGPYVCAEWEFGGYPWWLQNVKGMEIRRDNPEFLKYTKAYIDRLYKEVGSLQCTKGGPIVMVQCENEFGSYVAQRKDIPLEEHRAYNAKIKQQLADAGFNVPLFTSDGSWLFEGGATPGALPTANGESDIENLKKVVDQYHDGKGPYMVAEFYPGWLSHWAEPFPQIGASGIARQTEKYLQNDVSFNFYMVHGGTNFGFTSGANYDKKRDIQPDMTSYDYDAPISEAGWVTPKYDSIRNVIKKYVKYTIPEAPAPNPVIEIPSIQLNKVADVLAFAEKQKPVSSDTPLTFEQLNQGYGYVLYTRHFNQPISGTLEIPGLRDYAVVYVDGEQVGVLNRNTKTYSMEIEVPFNATLQILVENMGRINYGSEIVHNTKGIISPVQIAGKEIVGGWDMYQLPMDEMPDLTKLKADTHKNVPSEVAKLKGCPVLYEGTFTLDKVGDTFMDMESWGKGIVFVNGVNIGRYWKVGPQQTLYVPGVWLKKGENKIVIFEQLNETPQTEVKTVKTPVLMKLKGEGHHHHHH | soluble |
| MGSDKIHHHHHHMISYGELIRQIRQSKKISQKEVYTGVISKSYAIEFEKGTHAISSLLLEKIVAKLMVSMEEFFLMYHQEALPEKEDFWEAYARTCKTDEASAWESLYQKISLEKGKVNQVKSAAIKLELDHIKGKQVADKKAVQILENYLIEAVFWTLQDIFLFTRMMHYLPLKSRVPFYYKLLNTLDRYRHFERGRSISQSALASIMDDFIEKNEIEYMELMIKSLEKISEDCDGTYSKILCMYYRGIVRWREGEKREGSEEIEQAVAILRALGYENKAAEYETMYRQFARENNDIKTME | not soluble |
| MGSDKIHHHHHHMAESSFVYNGVEITWLKHAGFRIKGSRVVYIDPYDIPEELEKADVILVTHDHFDHMDVKSIRKLSKDDTVVVHPSGCIIEGFESCEVGVGTEAEVKGVKIKAVPAYNVDKPFHKENCVGYIVGIDGVKIYHAGDTDRIPEMKEIEVDIALLPVGGTYTMNLQEAIEAAKDIRAKYYIPMHFGAIPQTSADPEEFKRKVKGAVILKPLF | not soluble |
| MAEPGGHEGPASTQRAKVCETHTAMVFFVEDRVYKRKKPVDLGFLDYTTRSSRRAVCEREIELNRRFAPDVYLGLGELRTPGEQEAEPLVVMRRMPDDRRLSHLVRTGAPVADDLRAVARHLAAWHSAAPRGPAIAEQGTRDALAARWEASFTQVDVLAAKGPTRDEAGEVERLVRRYLAGRKPLFGLRIEQGRVLDGHGDLLADDVFCLGDGPRILDCLEFDDALRYVDGLDDAAFLAMDLESLGAPESAAFFLAQYGEYSGDPAPPSLWHHYVAYRAFVRAKVSLIQARQGAPGAHATARRLVRMALRHLRASAVGLTLVAGLPGTGKSTLSGALADRLGAVLLSSDRLRKEMAGLSPQQTASADYGEGLYTPEWTARTYAELLDRAAALLALGESVVLDATWIDSAQREAARHTAESAGADLVALHCHVPDDVTAARLSTRAPGASDADLGVAEAMAAEEQPWSGAVGVDTGGSLEAAVGQALAAVRPWGSDQAKVFRRPYMEPDLEHHHHHH | not soluble |
